Data reported in patent publication US12686710B2, “Anti-HER2 polypeptides derivatives as new diagnostic molecular probes” (BRACCO IMAGING S.P.A., priority 2019, dated 2026).

Assays:
[1] = target: HER2 (Homo sapiens, UniProt P04626); assay: ELISA monitoring of affitin selection against HER2; format: binding; details: end of selection process
Description: (§1) To selectively target HER2 receptor, a library of affitins has been enriched against the target by several consecutive rounds of screening (up to 6 rounds). The enrichment of anti-HER2 afftins has been followed after any selection round by ELISA assay monitoring, also controlling the condition of negligible binding to human (HSA), murine (MSA) and bovine (BSA) serum albumin.

[2] = system: human (HSA), murine (MSA) and bovine (BSA) serum albumin; assay: ELISA control of binding to serum albumins
Description: as §1

[3] = system: MCF-7 breast cancer cell line (low expressing HER2 receptor); assay: Cell internalization assay with Pe38 fusion, cell viability; format: cell-based, human; details: Aff03 tested as fusion Aff04-0-Pe38 (SEQ ID NO: 5), different concentrations
Procedure: (§2) The cells internalization of Aff03 was evaluated using a dedicated cell-based assay. […] Such truncated form (Pe38) needs to be internalized by means of the Aff03 to keep its cytotoxic activity.
(§3) To test internalization, then, the viability of the breast adenocarcinoma cell line SK-BR-3 (overexpressing HER2 receptor) and of the breast cancer cell line MCF-7 (low expressing HER2 receptor) was measured at different nanofitin concentrations.

[4] = system: SK-BR-3 breast adenocarcinoma cell line (overexpressing HER2 receptor); assay: as above; format: cell-based, human; details: Aff03 tested as fusion Aff04-0-Pe38 (SEQ ID NO: 5), different concentrations
Procedure: as §2, §3

B1: Aff03: 64 aac affitin of SEQ ID NO: 1, HER2-binding polypeptide (protein, listed as Sulfolobus acidocaldarius)
chain: VKVKFGHMGEEKEVDTSKIYAVNRAGKFVHFAYDDNGKFGSGSVPEKDAPKELLDMLARAEREK
affinity to HER2 [1]: nanomolar affinity | binding to albumin [2]: absence of binding to albumin | cytotoxic induction (cell viability) as measure of internalization [3]: no significant alterations | cytotoxic induction (cell viability) as measure of internalization [4]: dose-dependent cytotoxic induction
